Bridges are numbered along the chain shown (N, C = ends). Where no end group is shown, it is not given here.
Molecular target: the molecule itself
Experiment: SEC; size exclusion chromatography in the purification of the WW domain; column and buffer not shown (SI)

B1: WW domain of polyglutamine tract-binding protein 1 (PQBP1), Y65C mutant, 37 amino acid construct (domain or fragment, human, UniProt O60828 47-83, looked up)
chain: GLPPSWYKVFDPSCGLPYCWNADTDLVSWLSPHDPNS
modifications: disulfide 14-19 (inferred); not fully specified
notes: the mutation causes Golabi-Ito-Hall syndrome; also called Y65C WW domain; WW Y65C; source: purified by size exclusion chromatography
stoichiometry N: 2
